Results reported in patent publication US11987606 (Johns Hopkins, dated 2024).

Target: T cell receptor of Ova-specific CD8+ T cells (OT-I), on OT-I cells (mouse)
Test: cell-based or functional assay

B1: Kb(Ova)/ANXA5 (peptide-MHC)
chain: SIINFEKLGGGASGGGGSGGGGSIQKTPQIQVYSRHPPENGKPNILNCYVTQFHPPHIEIQMLKNGKKIPKVEMSDMSFSKDWSFYILAHTEFTPTETDTYACRVKHASMAEPKTVYWDRDMGGGGSGGGGSGGGGSGGGGSGPHSLRYFVTAVSRPGLGEPRYMEVGYVDDTEFVRFDSDAENPRYEPQAPWMEQEGPEYWERETQKAKGNEQSFRVDLRTLLGYYNQSKGGSHTIQVISGCEVGSDGRLLRGYQQYAYDGCDYIALNEDLKTWTAADMAALITKHKWEQAGEAERLRAYLEGTCVEWLRRYLKNGNATLLRTDSPKAHVTHHSRPEDKVTLRCWALGFYPADITLTWQLNGEELIQDMELVETRPAGDGTFQKWASVVVPLGKEQYYTCHVYHQGLPEPLTLRWEPPPSTRSMAQVLRGTVTDFPGFDERADAETLRKAMKGLGTDEESILTLLTSRSNAQRQEISAAFKTLFGRDLLDDLKSELTGKFEKLIVALMKPSRLYDAYELKHALKGAGTNEKVLTEIIASRTPEELRAIKQVYEEEYGSSLEDDVVGDTSGYYQRMLVVLLQANRDPDAGIDEAQVEQDAQALFQAGELKWGTDEEKFITIFGTRSVSHLRKVFDKYMTISGFQIEETIDRETSGNLEQLLLAVVKSIRSIPAYLAETLYYAMKGAGTDDHTLIRVMVSRSEIDLFNIRKEFRKNFATSLYSMIKGDTSGDYKKALLLLCGEDD
- IFN-γ expression of OT-I cells (flow cytometry); potency relative to dimeric Kb(Ova)/Fc: > 100 fold
- IFN-γ expression of resting or naïve OT-I cells after 12 hours (flow cytometry); potency by minimal dose of antigen required to detect activation, relative to monomeric Kb(Ova): > 1000 fold
